Experimental findings from US20180244734A1 are described below.

For the test, the target named is anti-BBP1 polyclonal antibody. The test is described as follows: competitive ELISA, free peptide against coated BBP1-biotin peptide for the anti-BBP1 polyclonal antibody. On the technique in general: ELISA stands for enzyme-linked immunosorbent assay.

Regarding HSYSTNSFSRTTNG [BBP1 peptide (SEQ ID No. 7)], the lowest level detected is 2.5 µg/mL.
